Experimental data published in patent US20040235710A1, “Pre-mixes of glp-1 and basal insulin” (published 2004).
Where a chain is given by its changes, count along the chain named. No end group written: not given here.

B1: Val^8-Lys^20-GLP-1(7-37)OH (peptide)
peptide: HVEGTFTSDVSSYKEGQAAKEFIAWLVKGRG
B2: Val^8-Leu^16-Glu^26-GLP-1(7-37)OH (peptide)
peptide: B1 peptide with V10L, K14L, K20E
B3: Val^8-His^36-GLP-1(7-37)OH (peptide)
peptide: B1 peptide with K14L, R30H
B4: Val^8-His^37-GLP-1(7-37)OH (peptide)
peptide: B1 peptide with K14L, G31H
B5: Val^8-Glu^34-GLP-1(7-37)OH (peptide)
peptide: B1 peptide with K14L, K28E
B6: Gly^8-His^11-GLP-1(7-37)OH (peptide)
peptide: B1 peptide with V2G, T5H, K14L
B7: Val^8-Lys^33-Val^34-GLP-1(7-37)OH (peptide)
peptide: B1 peptide with K14L, V27K, K28V
B8: Val^8-Lys^23-GLP-1(7-37)OH (peptide)
peptide: B1 peptide with K14L, Q17K
B9: Val^8-Lys^22-Glu^30-GLP-1(7-37)OH (peptide)
peptide: B1 peptide with K14L, G16K, A24E
B10: Val^8-Glu^26-GLP-1(7-37)OH (peptide)
peptide: B1 peptide with K14L, K20E
B11: Gly^8-Glu^30-GLP-1(7-37)OH (peptide)
peptide: B1 peptide with V2G, K14L, A24E
B12: Gln^22-GLP-1(7-37)OH (peptide)
peptide: B1 peptide with V2A, K14L, G16Q
B13: Val^8-His^26-GLP-1(7-37)OH (peptide)
peptide: B1 peptide with K14L, K20H
B14: Val^8-Ala^11-GLP-1(7-37)OH (peptide)
peptide: B1 peptide with T5A, K14L
B15: Val^8-Lys^33-Asn^34-GLP-1(7-37)OH (peptide)
peptide: B1 peptide with K14L, V27K, K28N
B16: Val^8-Ser^30-GLP-1(7-37)OH (peptide)
peptide: B1 peptide with K14L, A24S
B17: Val^8-Pro^35-GLP-1(7-37)OH (peptide)
peptide: B1 peptide with K14L, G29P
B18: Val^8-Gly^34-Lys^35-GLP-1(7-37)OH (peptide)
peptide: B1 peptide with K14L, K28G, G29K
B19: Val^8-Ala^33-GLP-1(7-37)OH (peptide)
peptide: B1 peptide with K14L, V27A
B20: Val^8-Gly^33-GLP-1(7-37)OH (peptide)
peptide: B1 peptide with K14L, V27G
B21: Val^8-His^30-GLP-1(7-37)OH (peptide)
peptide: B1 peptide with K14L, A24H
B22: Val^8-His^24-GLP-1(7-37)OH (peptide)
peptide: B1 peptide with K14L, A18H
B23: Val^8-Glu^30-GLP-1(7-37)OH (peptide)
peptide: B1 peptide with K14L, A24E
B24: Val^8-His^27-GLP-1(7-37)OH (peptide)
peptide: B1 peptide with K14L, E21H
B25: Val^8-His^35-GLP-1(7-37)OH (peptide)
peptide: B1 peptide with K14L, G29H
B26: Val^8-Lys^22-Glu^23-GLP-1(7-37)OH (peptide)
peptide: B1 peptide with K14L, G16K, Q17E
B27: Val^8-Glu^35-GLP-1(7-37)OH (peptide)
peptide: B1 peptide with K14L, G29E
B28: Val^8-Lys^11-GLP-1(7-37)OH (peptide)
peptide: B1 peptide with T5K, K14L
B29: Val^8-Lys^24-GLP-1(7-37)OH (peptide)
peptide: B1 peptide with K14L, A18K
B30: Val^8-Glu^33-GLP-1(7-37)OH (peptide)
peptide: B1 peptide with K14L, V27E
B31: Val^8-Asp^30-GLP-1(7-37)OH (peptide)
peptide: B1 peptide with K14L, A24D
B32: Val^8-Glu^36-GLP-1(7-37)OH (peptide)
peptide: B1 peptide with K14L, R30E
B33: Val^8-Gly^36-Pro^37-GLP-1(7-37)NH2 (peptide)
peptide: HVEGTFTSDVSSYLEGQAAKEFIAWLVKGGP-NH2
B34: Val^8-Glu^22-GLP-1(7-37)OH (peptide)
peptide: B1 peptide with K14L, G16E
B35: Val^8-Glu^16-GLP-1(7-37)OH (peptide)
peptide: B1 peptide with V10E, K14L
B36: Val^8-Glu^22-Lys^23-GLP-1(7-37)OH (peptide)
peptide: B1 peptide with K14L, G16E, Q17K
B37: Val^8-Ala^22-GLP-1(7-37)OH (peptide)
peptide: B1 peptide with K14L, G16A
B38: Val^8-Asp^22-GLP-1(7-37)OH (peptide)
peptide: B1 peptide with K14L, G16D
B39: Val^8-His^22-GLP-1(7-37)OH (peptide)
peptide: B1 peptide with K14L, G16H
B40: Val^8-Pro^22-GLP-1(7-37)OH (peptide)
peptide: B1 peptide with K14L, G16P
B41: Val^8-Lys^22-GLP-1(7-37)OH (peptide)
peptide: B1 peptide with K14L, G16K
B42: Val^8-Ser^22-GLP-1(7-37)OH (peptide)
peptide: B1 peptide with K14L, G16S
B43: Val^8-Ala^16-GLP-1(7-37)OH (peptide)
peptide: B1 peptide with V10A, K14L
B44: Val^8-Glu^22-GLP-1(7-36)NH2 (peptide)
peptide: HVEGTFTSDVSSYLEEQAAKEFIAWLVKGR-NH2
B45: Val^8-Lys^22-GLP-1(7-36)NH2 (peptide)
peptide: HVEGTFTSDVSSYLEKQAAKEFIAWLVKGR-NH2
B46: Gly^8-GLP-1(7-37)OH (peptide)
peptide: B1 peptide with V2G, K14L
B47: Val^8-Trp^12-GLP-1(7-37)OH (peptide)
peptide: B1 peptide with F6W, K14L
B48: Val^8-Tyr^12-Tyr^16-GLP-1(7-37)OH (peptide)
peptide: B1 peptide with F6Y, V10Y, K14L
B49: Val^8-Trp^16-Glu^22-Val^25-GLP-1(7-37)OH (peptide)
peptide: HVEGTFTSDWSSYLEEQAVKEFIAWLVKGRG
B50: Val^8-Leu^25-GLP-1(7-37)OH (peptide)
peptide: B1 peptide with K14L, A19L
B51: Val^8-Leu^16-GLP-1(7-37)OH (peptide)
peptide: B1 peptide with V10L, K14L
B52: Val^8-Tyr^12-GLP-1(7-36)NH2 (peptide)
peptide: HVEGTYTSDVSSYLEGQAAKEFIAWLVKGR-NH2

Each binder was assayed against T1, human GLP-1 receptor (human, UniProt P43220) (assay: cell-based or functional assay).
For B1, the “GLP-1 Receptor Activation (relative to GLP-1(7-37)OH)” value was 0.33 relative potency. In the case of B2, the “GLP-1 Receptor Activation (relative to GLP-1(7-37)OH)” value is reported as 0.23 relative potency. For B3, the “GLP-1 Receptor Activation (relative to GLP-1(7-37)OH)” value was 0.22 relative potency. B4 was tested, and the “GLP-1 Receptor Activation (relative to GLP-1(7-37)OH)” value was 0.33 relative potency. For B5, the “GLP-1 Receptor Activation (relative to GLP-1(7-37)OH)” value was 0.17 relative potency. For B6, the “GLP-1 Receptor Activation (relative to GLP-1(7-37)OH)” value was 0.282 relative potency. In the case of B7, the “GLP-1 Receptor Activation (relative to GLP-1(7-37)OH)” value is reported as 0.08 relative potency. For B8, the “GLP-1 Receptor Activation (relative to GLP-1(7-37)OH)” value was 0.18 relative potency. B9 was tested, and the “GLP-1 Receptor Activation (relative to GLP-1(7-37)OH)” value was 0.37 relative potency. For B10, the “GLP-1 Receptor Activation (relative to GLP-1(7-37)OH)” value was 1.5 relative potency. In the case of B11, the “GLP-1 Receptor Activation (relative to GLP-1(7-37)OH)” value is reported as 0.29 relative potency. B12 was tested, and the “GLP-1 Receptor Activation (relative to GLP-1(7-37)OH)” value was 0.42 relative potency. For B13, the “GLP-1 Receptor Activation (relative to GLP-1(7-37)OH)” value was 1.6 relative potency. In the case of B14, the “GLP-1 Receptor Activation (relative to GLP-1(7-37)OH)” value is reported as 0.021 relative potency. For B15, the “GLP-1 Receptor Activation (relative to GLP-1(7-37)OH)” value was 0.09 relative potency. With B16 the “GLP-1 Receptor Activation (relative to GLP-1(7-37)OH)” value was 0.19 relative potency. In the case of B17, the “GLP-1 Receptor Activation (relative to GLP-1(7-37)OH)” value is reported as 0.094 relative potency. For B18, the “GLP-1 Receptor Activation (relative to GLP-1(7-37)OH)” value was 0.34 relative potency. B19 was tested, and the “GLP-1 Receptor Activation (relative to GLP-1(7-37)OH)” value was 0.1 relative potency. In the case of B20, the “GLP-1 Receptor Activation (relative to GLP-1(7-37)OH)” value is reported as 0.01 relative potency. In the case of B21, the “GLP-1 Receptor Activation (relative to GLP-1(7-37)OH)” value is reported as 0.19 relative potency. For B22, the “GLP-1 Receptor Activation (relative to GLP-1(7-37)OH)” value was 0.007 relative potency. With B23 the “GLP-1 Receptor Activation (relative to GLP-1(7-37)OH)” value was 0.29 relative potency. B24 was tested, and the “GLP-1 Receptor Activation (relative to GLP-1(7-37)OH)” value was 0.37 relative potency. In the case of B25, the “GLP-1 Receptor Activation (relative to GLP-1(7-37)OH)” value is reported as 0.41 relative potency. For B26, the “GLP-1 Receptor Activation (relative to GLP-1(7-37)OH)” value was 0.35 relative potency. For B27, the “GLP-1 Receptor Activation (relative to GLP-1(7-37)OH)” value was 0.15 relative potency. B28 was tested, and the “GLP-1 Receptor Activation (relative to GLP-1(7-37)OH)” value was 0.001 relative potency. B29 was tested, and the “GLP-1 Receptor Activation (relative to GLP-1(7-37)OH)” value was 0.02 relative potency. In the case of B30, the “GLP-1 Receptor Activation (relative to GLP-1(7-37)OH)” value is reported as 0.039 relative potency. For B31, the “GLP-1 Receptor Activation (relative to GLP-1(7-37)OH)” value was 0.15 relative potency. With B32 the “GLP-1 Receptor Activation (relative to GLP-1(7-37)OH)” value was 0.11 relative potency. With B33 the “GLP-1 Receptor Activation (relative to GLP-1(7-37)OH)” value was 0.53 relative potency. For B34, the “GLP-1 Receptor Activation (relative to GLP-1(7-37)OH)” value was 1.29 relative potency. In the case of B35, the “GLP-1 Receptor Activation (relative to GLP-1(7-37)OH)” value is reported as 0.047 relative potency. B36 was tested, and the “GLP-1 Receptor Activation (relative to GLP-1(7-37)OH)” value was 1.43 relative potency. In the case of B37, the “GLP-1 Receptor Activation (relative to GLP-1(7-37)OH)” value is reported as 0.56 relative potency. With B38 the “GLP-1 Receptor Activation (relative to GLP-1(7-37)OH)” value was 0.4 relative potency. For B39, the “GLP-1 Receptor Activation (relative to GLP-1(7-37)OH)” value was 0.14 relative potency. In the case of B40, the “GLP-1 Receptor Activation (relative to GLP-1(7-37)OH)” value is reported as 0.01 relative potency. With B41 the “GLP-1 Receptor Activation (relative to GLP-1(7-37)OH)” value was 0.58 relative potency. B42 was tested, and the “GLP-1 Receptor Activation (relative to GLP-1(7-37)OH)” value was 0.5 relative potency. With B43 the “GLP-1 Receptor Activation (relative to GLP-1(7-37)OH)” value was 0.112 relative potency. In the case of B44, the “GLP-1 Receptor Activation (relative to GLP-1(7-37)OH)” value is reported as 1 relative potency. B45 was tested, and the “GLP-1 Receptor Activation (relative to GLP-1(7-37)OH)” value was 0.53 relative potency.

Molecular target: T1, human GLP-1 receptor
Test: cell-based or functional assay
Remark: another data set of the same source
In the case of B46, the “GLP-1 receptor activation relative to Val^8-GLP-1(7-37)OH” value is reported as 1.7 relative potency. B47 was tested, and the “GLP-1 receptor activation relative to Val^8-GLP-1(7-37)OH” value was 1.1 relative potency. B48 was tested, and the “GLP-1 receptor activation relative to Val^8-GLP-1(7-37)OH” value was 1.5 relative potency. B49 was tested, and the “GLP-1 receptor activation relative to Val^8-GLP-1(7-37)OH” value was 4.4 relative potency. In the case of B50, the “GLP-1 receptor activation relative to Val^8-GLP-1(7-37)OH” value is reported as 0.5 relative potency. B51 was tested, and the “GLP-1 receptor activation relative to Val^8-GLP-1(7-37)OH” value was 1.1 relative potency. In the case of B52, the “GLP-1 receptor activation relative to Val^8-GLP-1(7-37)OH” value is reported as 1.1 relative potency.
